We go through eight molecules from patent US9175313B2, “Three-dimensional structure of isoprene synthase and its use thereof for generating variants” (Danisco US Inc., priority 2009, dated 2015).

Holding throughout (assay type): biochemical
A short description of data set [1]: DMAPP assay of site evaluation library (SEL) lysates with ELISA protein quantitation: specific activity ranked as performance index. The conditions noted are these: for performance index: primary SEL screen, activity on DMAPP per unit weight relative to the parental molecule (parent = 1); for isoprene synthase activity of variants relative to parent, in words: SEL analysis of P. alba IspS. As to the method: 1. Prepared Patch Plates from Glycerol Stock Plates. Using a V&S 96 pin Replication Tool, cultures were patched onto a LB Agar 35 CMP/50 Kan large patch plates from overnight glycerol stock plates. Plates were incubated at 30° C. overnight for 20 to 24 hr. Cultures can be stored at 4° C. for up to a week.
2. Prepared Overnight Growth Plates. 500 mL of LB 35 CMP/50 Kan media were prepared. 300 μL/well of LB 35 CMP/50 Kan media were dispensed into deep 96 well plates (VWR). Using a V&S Replication Tool, the patch inoculum was transferred into deep 96 well plate by touching the tool pins to respective patch and using a circular motion to coat the pins with inoculum. The media was inoculated by dipping the tool then shaking the pin within the well. The overnight growth plates were sealed using a Breathe-Easier Sealing Membrane (Diversified Biotech). The plates were incubated in a Vertiga Shaking Incubator at 30° C. with shaking at 800 rpm overnight for 16 to 18 hr.
3. Prepared Day Growth Plate. Deep 96 well plates were prepared by dispensing 588 μL/well of LB 35 CMP/50 Kan media. Overnight growth plates were removed from the incubator. Overnight cultures were diluted 50-fold and 12 μL of overnight culture were transferred to day growth plates containing 588 μL/well of LB media containing antiobiotics. Overnight growth plates were sealed with new Breathe-Easier Sealing Membranes. Cultures were incubated at 30° C. and 800 rpm for 2.5 hr. Frozen 12 mM IPTG (Sigma) vials were removed from −20° C. and placed in a hood to thaw.
4. OD600 Plate Read of Overnight, Induction, and Harvest. 150 μL 1×PBS were dispensed into 96 well Costar Read Plates (#9017). 50 μL of culture samples were transferred to Read Plates. The OD600 reading was recorded using a Spectramax Plate Reader (Molecular Devices).
5. Induction. Electronic multi-channel pipettors were prepared to dispense 4×20 μL/well of IPTG (if 4× replicates). The multi-dispense option in the electronic pipettor was adjusted if more replicates was necessary. Thawed 12 mM IPTG was poured into 50 mL or 100 mL sterile reservoirs. 20 μL/well of IPTG into each 600 μL/well culture. Overnight growth plates were resealed. Cultures were incubated at 30° C. and 800 rpm for 4 hr. OD600 readings of plates were recorded according instructions above.
6. Harvest. 400 μL of induced culture were transferred to 800 μL Grenier storage plates. Plates were centrifuged at 3300 rpm for 20 min at 2° to 8° C. in a low speed benchtop centrifuge. Supernatants were discarded, pellets should stay in the conical bottom well. Residual supernatants were slapped out onto a paper towel on the benchtop. Plates were sealed with an aluminum foil membrane (Beckman-Coulter). Plates were covered with a plastic plate lid if available. Storage plates were labeled accordingly and stored frozen at −80° C.
Plates containing induced cell pellets were removed from the −80° C. freezer and allowed to thaw on the benchtop for 30 minutes prior to lysis. 200 μl of lysis buffer (50 mM Tris pH 8, 25 mM MgCl2, 74 μg/ml DNase I, 250 U/ml lysozyme, 0.1% Tween 20, 0.5 mM PMSF) was added to each pellet, and plates were incubated on an Eppendorf Thermomixer at 25° C. for 30 minutes at 1200 rpm. After lysis, plates were centrifuged at 3450 rpm for 15 minutes at 4° C. Supernatants were then removed and diluted 10-fold prior to DMAPP assay. 80 μl of the diluted supernatant was added to 20 μl of the DMAPP working stock (20 mM DMAPP in 0.1 M Phosphate Buffer pH 8.2, DMAPP triammonium salt, Cayman chemicals) in a Zinsser glass block. Blocks were then sealed with aluminum sealing membranes, and incubated in Thermomixers at 25° C. for 30 minutes at 450 rpm. Reactions were stopped by incubating blocks on Thermomixers at 70° C. for 12 minutes at 450 rpm. GC-MS was then used for headspace measurements to calculate the amount of isoprene produced by each lysates.
Headspace Assay. […]
In general terms: In an ELISA, binding on a coated surface is turned into a signal by an enzyme label.

The nature of data set [2]: Specific activity measurement of purified isoprene synthase variants (4 mM DMAPP, 30 C, GC-MS headspace). The settings on record: for S.A. / Variant S.A./WT S.A.: 50 mM NaCl, 50 mM Tris pH = 8, 30° C.; for Variant S.A./WT S.A.: ratio to WT; for specific activity compared to WT isoprene synthase, in words: 30 C, purified enzyme. As to the method: 1. Initial Purification—Resuspend the pellet in 3 ml of fresh lysis buffer. Break cells by passing them through the French Press using the small cylinder. Centrifuge samples for 1 hour at 30,000×G and collect the supernatant. Retain pellet in order to test for presence of insoluble protein. Pre equilibrate 0.5 mL Ni Sepharose 6 Fast Flow resin (Amersham) in a 20 ml disposable column with 10 mL of Ni wash buffer. Add protein to column and shake for 60 min at 4 C to bind protein. Elute protein with 2.5 mL Ni elution buffer.
2. Buffer Exchange—Equilibrate a PD-10 column (GE Healthcare) with 25 mL of PD-10 buffer. Load protein on to column and elute with 3.5 mL of PD-10 buffer.
10 uL of purified enzyme was incubated with 4 mM DMAPP, 50 mM MgCl2 in a buffer containing 50 mM Tris and 50 mM NaCl (pH=8) to a final volume of 100 uL for 15 min. at 30 C in gas tight 2 mL vials. Reactions were terminated with the addition of 100 uL of […] EDTA, pH=8. Samples were analyzed by GC-MS to determine the concentration of isoprene in the headspace of the vials. All specific activity measurements were performed in triplicate.
(§1) Protein concentration was determined by measuring the absorbance of each protein solution at 280 nm on a Helwlett Pachard 8453 UV-Vis spectrophotometer and converting the absorbance to protein concentration using the extinction coefficient as determined on the Expasy website (Gasteiger E., Hoogland C., Gattiker A., Duvaud S., Wilkins M. R., Appel R. D., Bairoch A.; Protein Identification and Analysis Tools on the ExPASy Server; (In) John M. Walker (ed): The Proteomics Protocols Handbook, Humana Press (2005). pp. 571-607). The protein concentrations of isoprene synthase variants assayed for KM and kcat determination were verified by comparative gel electrophoresis of a dilution series of each protein (FIG. 61).

Data set [3] can be described thus: kcat, KM and Ki determination, rate vs [DMAPP], fit to uncompetitive substrate inhibition. The settings on record: for KM compared to WT isoprene synthase, in words / rate profile vs [DMAPP] / Km / kcat: 1.25 to 20 mM DMAPP, 30 C; for Km / kcat / Ki: average of three trials ± one standard deviation; for kcat: in s^-1 (unit assumed); for Ki: uncompetitive substrate inhibition by DMAPP, read-out: KiDMAPP. As to the method: 10 uL of purified enzyme was incubated with DMAPP at concentrations ranging from 1.25 to 20 mM DMAPP in a buffer containing 50 mM Tris, 50 mM MgCl2 and 50 mM NaCl (pH=8) to a final volume of 100 uL for 15 min. at 30 C in gas tight 2 mL vials. Reactions were terminated with the addition of 100 uL of 250 mM EDTA, pH=8. Samples were analyzed by GC-MS to determine the concentration of isoprene in the headspace of the vials. Data were analyzed using Kaleidagraph and fit to following equation for uncompetitive substrate inhibition: rate/E=kcat*S/(KM+S*(1+S/Ki)). All kinetic assays were performed in triplicate.
as §1

Where a chain is given by its changes, count along the chain named. Names and notes keep the numbering of the source. “Also recorded” adds a separate entry of the source.

B1: D345W: P. alba IspS variant (protein, UniProt Q50L36 38-595, looked up, variant D345W)
Isoprene synthase, …: CSVSTENVSFTETETEARRSANYEPNSWDYDYLLSSDTDESIEVYKDKAKKLEAEVRREINNEKAEFLTLLELIDNVQRLGLGYRFESDIRGALDRFVSSGGFDAVTKTSLHGTALSFRLLRQHGFEVSQEAFSGFKDQNGNFLENLKEDIKAILSLYEASFLALEGENILDEAKVFAISHLKELSEEKIGKELAEQVNHALELPLHRRTQRLEAVWSIEAYRKKEDANQVLLELAILDYNMIQSVYQRDLRETSRWWRRVGLATKLHFARDRLIESFYWAVGVAFEPQYSDCRNSVAKMFSFVTIIWDIYDVYGTLDELELFTDAVERWDVNAINDLPDYMKLCFLALYNTINEIAYDNLKDKGENILPYLTKAWADLCNAFLQEAKWLYNKSTPTFDDYFGNAWKSSSGPLQLVFAYFAVVQNIKKEEIENLQKYHDTISRPSHIFRLCNDLASASAEIARGETANSVSCYMRTKGISEELATESVMNLIDETWKKMNKEKLGGSLFAKPFVETAINLARQSHCTYHNGDAHTSPDELTRKRVLSVITEPILPFER
For B1, the performance index in data set [1] is 0.46.

B2: D345S: P. alba IspS variant (protein, UniProt Q50L36 38-595, looked up, variant D345S)
Isoprene synthase, …: B1 Isoprene synthase, … with W308S
With B2, the performance index in data set [1] worked out at 0.41.

B3: D345C: P. alba IspS variant (protein, UniProt Q50L36 38-595, looked up, variant D345C)
Isoprene synthase, …: B1 Isoprene synthase, … with W308C
Regarding B3, the performance index in data set [1] worked out at 0.43.

B4: D345M: P. alba IspS variant (protein, UniProt Q50L36 38-595, looked up, variant D345M)
Isoprene synthase, …: B1 Isoprene synthase, … with W308M
Take B4: the performance index in data set [1] worked out at 0.43.

B5: A453N: P. alba IspS variant A453N; pDW99, strain DW397, SEQ ID NO: 65 (protein)
chain: MEARRSANYEPNSWDYDYLLSSDTDESIEVYKDKAKKLEAEVRREINNEKAEFLTLLELIDNVQRLGLGYRFESDIRGALDRFVSSGGFDAVTKTSLHGTALSFRLLRQHGFEVSQEAFSGFKDQNGNFLENLKEDIKAILSLYEASFLALEGENILDEAKVFAISHLKELSEEKIGKELAEQVNHALELPLHRRTQRLEAVWSIEAYRKKEDANQVLLELAILDYNMIQSVYQRDLRETSRWWRRVGLATKLHFARDRLIESFYWAVGVAFEPQYSDCRNSVAKMFSFVTIIDDIYDVYGTLDELELFTDAVERWDVNAINDLPDYMKLCFLALYNTINEIAYDNLKDKGENILPYLTKAWADLCNAFLQEAKWLYNKSTPTFDDYFGNAWKSSSGPLQLVFAYFAVVQNIKKEEIENLQKYHDTISRPSHIFRLCNDLASASAEIARGETNNSVSCYMRTKGISEELATESVMNLIDETWKKMNKEKLGGSLFAKPFVETAINLARQSHCTYHNGDAHTSPDELTRKRVLSVITEPILPFERENLYFQGLEHHHHHH
For B5, in data set [2], the S.A. was 170 ± 30 nmol/mg/min and the “Variant S.A./WT S.A.” value was 0.4. For the same molecule, in data set [1], the “isoprene synthase activity of variants relative to parent, in words” value is given as “improved activity; also recorded: high performing” and the performance index came out at 2.99.

B6: SP: P. alba MEA G491S L494P (+) TEV; pDW110, SEQ ID NO: 87 (protein)
chain: B5 chain with N453A, G491S, L494P
modifications: TEV site
For orientation: Km means the concentration of substrate that gives half-maximal velocity. Regarding B6, in data set [2], the S.A. amounted to 770 ± 40 nmol/mg/min; the “Variant S.A./WT S.A.” value is 1.6; the “specific activity compared to WT isoprene synthase, in words” value is “increased specific activity; also recorded: greater than the WT isoprene synthase but less than the β isoprene synthase variant”. In addition, in data set [3], the “KM compared to WT isoprene synthase, in words” value is listed as “less than the KM of the WT”; the “rate profile vs [DMAPP]” value was “uncompetitive substrate inhibition by DMAPP”; the Km is 4.4 ± 0.3 mM; the kcat is 1.2 ± 0.1. The Ki in data set [3] amounted to 18 ± 1 mM.

B7: T536C: P. alba IspS variant T536C; pDW102, strain DW400, SEQ ID NO: 71 (protein)
chain: B5 chain with N453A, T536C
Regarding B7, in data set [2], the S.A. is on record as 430 ± 10 nmol/mg/min and the “Variant S.A./WT S.A.” value came out at 0.9. For the same molecule, in data set [1], the “isoprene synthase activity of variants relative to parent, in words” value was “improved isoprene synthase activity; also recorded: high performing” and the performance index stood at 1.48.

B8: SPC: P. alba MEA G491S L494P T536C (+) TEV; pDW112, SEQ ID NO: 91 (protein)
chain: B5 chain with N453A, G491S, L494P, T536C
modifications: TEV site
As to B8, in data set [2], the S.A. amounted to 630 ± 40 nmol/mg/min; the “Variant S.A./WT S.A.” value stood at 1.3; the “specific activity compared to WT isoprene synthase, in words” value is listed as “increased specific activity; also recorded: greater than the WT isoprene synthase but less than the β isoprene synthase variant”. Besides, in data set [3], the “KM compared to WT isoprene synthase, in words” value is “less than the KM of the WT”; the “rate profile vs [DMAPP]” value is listed as “uncompetitive substrate inhibition by DMAPP”; the Km worked out at 3.5 ± 0.8 mM; the kcat is reported as 1.5 ± 0.4. In data set [3], the Ki turned out to be 25 ± 21 mM.
